From patent publication US7329737 (DYAX, dated 2008)

B1: M0098-C10 (Fab, V domains shown)
VH: EVQLLESGGGLVQPGGSLRLSCAASGFTFSFYSMMWVRQAPGKGLEWVSGISSSGGTTKYADSVKGRFTISRDNSKNTLYLQMNSLRAEDTAVYYCARGGTNYDYVWGSYRSHYYYYGMDVWGQGTTVTVSS
VL: DIQMTQSPSSLSASVGDRVTITCRASHNIYTSLNWLQQKPGKAPKLLIYGASTLENGVPSRFSGSASGTDFTLTISSLQPEDSATYYCQQSYTSVTFGQGTKLEIRR
B2: M0095-H10 (Fab, V domains shown)
VH: EVQLLESGGGLVQPGGSLRLSCAASGFTFSNYKMQWVRQAPGKGLEWVSSIYSSGGKTVYADSVKGRFTISRDNSKNTLYLQMNSLRAEDTAVYYCARTPGYNYFDYWGQGTLVTVSS
VL: DIQMTQSPSTLSASVGDRVTITCRASQSISSWLAWYQQKPGKAPKLLIYTASSLESGVPSRFSAGGSGTEFTLTISSLQPDDFGTYYCQQYNSYSLTFGGGTKVEIKR
B3: M0117-C04 (Fab, V domains shown)
VH: EVQLLESGGGLVQPGGSLRLSCAASGFTFSHYLMFWVRQAPGKGLEWVSSIWPSGGNTKYADSVKGRFTISRDNSKNTLYLQMNSLRAEDTAVYYCARPAYYYAMDVWGQGTTVTVSS
VL: DIQMTQSPLSLSASVGDRVTITCRASQTFNNYLNWYQQKPGKAPKLLIYAASTLQSGVPSRFSGSGSGTDFTLTISSLQPEDFATYYCQQANSFPFTFGPGTKVDIKR
B4: M0094-F03 (Fab, V domains shown)
VH: EVQLLESGGGLVQPGGSLRLSCAASGFTFSWYQMSWVRQAPGKGLEWVSSIYPSGGATKYADSVKGRFTISRDNSKNTLYLQMNSLRAEDTAMYYCARMGLHHSFDYWGQGTLVTVSS
VL: DIQMTQSPGTLSLSLGETATLSCRASQTVGGSYLAWYRQKPGQAPSLLIYAASNRAPGIPDRFSGSGSGTDFTLTISSLQSEDFAVYYCQQYGSSMYTFGQGTILEIKR
B5: M0124-G12 (Fab, V domains shown)
VH: EVQLLESGGGLVQPGGSLRLSCAASGFTFSHYWMRWVRQAPGKGLEWVSSIGSSGGMTKYADSVKGRFTISRDNSKNTLYLQMNSLRAEDTAVYYCARALRWRAFDIWGQGTMVTVSS
VL: DIQMTQSPSSVSASVGDRVTITCRASQGISSWLAWYQQKPGKAPKLLIYAASSLQSGVPSRFSGSGSGTDFTLTISSLQPEDFATYYCQQANSFPLTFGGGTKVEIKR
B6: M0131-A03 (Fab, V domains shown)
VH: EVQLLESGGGLVQPGGSLRLSCAASGFTFSWYTMGWVRQAPGKGLEWVSVIYPSGGMTKYADSVKGRFTISRDNSKNTLYLQMNSLRAEDTAVYYCARTSGGTPWGFWGQGTLVTVSS
VL: AQYELTQPASVSGSPGQSITISCTGTNTDVGGYNYVSWYQQYPGKAPKLMIYEVNHRPSGVSNRFSGSKSGNTASLTISGLQAEDEADYYCSSYTYRNTYVFGTGTKVTVLG
B7: M0099-D05 (Fab, V domains shown)
VH: EVQLLESGGGLVQPGGSLRLSCAASGFTFSNYIMSWVRQAPGKGLEWVSSIWPSGGHTRYADSVKGRFTISRDNSKNTLYLQMNSLRAEDTAVYYCARAGSYYAGDYWGQGTLVTVSS
VL: DIQMTQSPGTLSLSPGERATLSCRASQTVSSNYLAWYQQKPGLAPRLLIYGVSNRAAGIPDRFSGRGSGTDFTLIINRLEPEDFAVYYCQHYGSSAFTFGRGTKLEIER
B8: M0131-C08 (Fab, V domains shown)
VH: EVQLLESGGGLVQPGGSLRLSCAASGFTFSWYSMTWVRQAPGKGLEWVSSISPSGGATKYADSVKGRFTISRDNSKNTLYLQMNSLRAEDTAVYYCARGGAASLPFDYWGQGTLVTVSS
VL: DIQMTQSPSSVSASVGDRVTITCRASQDVLVSFAWYQQRPGTAPKLLIYAASHLHPGVPSRFSASGSGTDFTLTINGLQPEDFATYYCQQARSFPHTFGQGTRLEKKR

These binders were tested against T1, hK1 (human tissue kallikrein 1), recombinant (human, UniProt P06870 25-262) (assay: SPR).
T1 construct: Expressed in P. pastoris from KLK1 cDNA and purified; enzymatically active; also called KLK1; Recombinant (Pichia) Kallikrein

Point of comparison: B5, Kd 17.2 nM. Against it:
- B1 — within 1.5-fold, 16.1 nM
- B2 — within 1.5-fold, 16.5 nM
- B3 — within 1.5-fold, 16.6 nM
- B4 — within 1.5-fold, 16.7 nM
- B6 — within 1.5-fold, 17.4 nM
- B7 — within 1.5-fold, 17.5 nM
- B8 — within 1.5-fold, 17.7 nM

Point of comparison: B5, koff 0.0064 s⁻¹. Against it:
- B1 — 3.3-fold lower, 0.00193 s⁻¹
- B2 — within 1.5-fold, 0.00918 s⁻¹
- B3 — 1.9-fold lower, 0.00334 s⁻¹
- B4 — within 1.5-fold, 0.00644 s⁻¹
- B6 — 7.2-fold higher, 0.046 s⁻¹
- B7 — within 1.5-fold, 0.00578 s⁻¹
- B8 — within 1.5-fold, 0.00466 s⁻¹

Point of comparison: B8, kon 264000 M⁻¹ s⁻¹. Against it:
- B1 — 2.2-fold lower, 120000 M⁻¹ s⁻¹
- B2 — 2.1-fold higher, 556000 M⁻¹ s⁻¹
- B3 — within 1.5-fold, 201000 M⁻¹ s⁻¹
- B5 — within 1.5-fold, 372000 M⁻¹ s⁻¹
- B6 — 10-fold higher, 2.65e+06 M⁻¹ s⁻¹
- B7 — within 1.5-fold, 331000 M⁻¹ s⁻¹
